Results on 33 sequences are retold here after the supplement of paper PMC9170038.

Data set [1] relates to MS2 coat protein. Briefly: apparent KD of MS2 coat protein; designed switch direction (-1 OFF switch, 1 ON switch): 1; higher = weaker reporter binding. The note with it: Eterna round: R98. As to the method:
(§1)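 RNA-MaP: designed FMN/MS2 RNA switches (84 nt design region) are transcribed on-chip within common flanks and titrated with SNAP-549-labelled MS2 coat protein (about 1-3000 nM) in 100 mM Tris pH 7.5, 80 mM KCl, 4 mM MgCl2, without or with 200 uM FMN. Median apparent KD per design; activation ratio = KD,OFF / KD,ON.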

Data set [2] concerns MS2 coat protein. The data set is described as follows: apparent KD of MS2 coat protein; higher = weaker reporter binding. The note with it: Eterna round: R101. The procedure: as §1

With “ACAUGAGGAUCACCCAUGUAAUAACAUCGGAUUGUCGAAGGUGAGGAUAUCGUACUGGAAUAUUUCGAGAAGGCACAUUCUCCU [JR_SSNG3_Sub075]”, the “apparent KD of MS2 coat protein” value in the data set with MS2 coat protein [1] (input ligand: FMN 200 uM) was 0.0259 µM; in the data set with MS2 coat protein [1] (input ligand: none) it was 0.0235 µM. Regarding “AUAGCAUACCGAGGAUAUUCAUAUAAUAAAUAAACAUGAGGAUCACCCAUGUGGCGAAAGCCUAGGGAGAAGGCGGAAUGCUAG [salish99_SSNG2_r2_101]”, the “apparent KD of MS2 coat protein” value in the data set with MS2 coat protein [1] (input ligand: FMN 200 uM) turned out to be 0.0299 µM; in the data set on MS2 coat protein [1] (input ligand: none), 0.237 µM.

Take “AUUAAUGGGUGAGGAUAUGCACAGGAUCACCGUGUAGAAGGCAUCAGGUAGAAGGUGCAGAGGAUCACCCUGUAAGGAUAUAUC [pwkr2 ssNG1 DX.13]”: the entries for the “apparent KD of MS2 coat protein” value with MS2 coat protein [1] (input ligand: FMN 200 uM) and in the data set with MS2 coat protein [1] (input ligand: none) were 0.858 µM and 0.998 µM, respectively.

For the sequence “CAAUUAUGGUGAGGAUAUGCACAGGAUCACCGUGUAGAAGGCAUCAGGUAGAAGGUGCAGAGGAUCACCCUGUAAGGAUAUAUC [pwkr2 ssNG1 DX.17]”, the results for the “apparent KD of MS2 coat protein” value with MS2 coat protein [1] (input ligand: FMN 200 uM) and in the data set with MS2 coat protein [1] (input ligand: none) were 0.109 µM and 0.666 µM, respectively. On the same counts, the results for “CACUCAAGGUGAGGAUAUGCACAGGAUCACCGUGUAGAAGGCAUCAGGUAGAAGGUGCAGAGGAUCACCCUGUAAGGAUAUAUC [pwkr2 ssNG1 DX.11]” are 0.334 µM and 0.867 µM.

For the sequence “CAUAGGUGUACAUGAGGAUCACCCAUGUCCCUGGUCAUUGGACAGGAUAUAUGGGCGGUCGCUUCAUAGAAGGGUUAAAUGGGA [Orenatis]”, the “apparent KD of MS2 coat protein” value amounted to 0.224 µM in the data set with MS2 coat protein [1] (input ligand: FMN 200 uM) and 0.0666 µM in the data set on MS2 coat protein [1] (input ligand: none). On the same counts, the results for “CAUGAAGGGUGAGGAUAUGCACAGGAUCACCGUGUAGAAGGCAUCAGGUAGAAGGUGCAGAGGAUCACCCUGUAAGGAUAUAUC [pwkr2 ssNG1 DX.16]” are 0.482 µM and 1.31 µM. On to “CCAGAGAUAUGAGGAUAUCGAGUGGAUAACACUCGAGAAGGCAUGUGAAAACAUGAGGAUCACCCAUGUGAUCAAUACUCUGGA [Same State NG1 - WT Aptamer 2D]”, for which the entries for the “apparent KD of MS2 coat protein” value with MS2 coat protein [1] (input ligand: FMN 200 uM) and in the data set on MS2 coat protein [1] (input ligand: none) were 0.0274 µM and 0.17 µM, respectively.

As to “CCCUUCAGAAGAGGGACAUGAGGAUCACCCAUGUAGGCUGCACAGGAUAUCGAUCGGAGGCGGUACGAGAAGGGUGACGUCAUU [Soedgege]”, the figures for the “apparent KD of MS2 coat protein” value in the data set on MS2 coat protein [1] (input ligand: FMN 200 uM) and in the data set with MS2 coat protein [1] (input ligand: none) were 0.168 µM and 0.0793 µM, respectively.

On to “CCGGAAACGGGUAGCUGACAUGAGGAUCACCCAUGUGAAUCUGAGGAUAUGGAUGGUAAUUCCAUCCAGAAGGCAGUCAGCUAC [Mat - Same State NG 3 - JL Mod - D82]”, for which the “apparent KD of MS2 coat protein” value in the data set on MS2 coat protein [1] (input ligand: FMN 200 uM) came to 0.0591 µM; in the data set on MS2 coat protein [1] (input ligand: none) it was 0.551 µM. On the same counts, the results for “CCGGAAACGGGUAGCUGUACAUGAGGAUCACCCAUGUGAUCAUAGGAUAUGGUUCCUAAUUGGAACCAGAAGGAUGUCAGCUAC [Mat - Same State NG 3 - JL Mod - D86]” are 0.434 µM and 0.0326 µM.

As for “CCGGUGUAUGCAGGAUAUGAGAGGAGGUGACCAUCAGAAGGGCAAGCCCACAUGAGGAUCACCCAUGUACUAAGAGACAAGGCC [Tienlaonso]”, the entries for the “apparent KD of MS2 coat protein” value in the data set on MS2 coat protein [1] (input ligand: FMN 200 uM) and in the data set with MS2 coat protein [1] (input ligand: none) were 0.0507 µM and 0.0255 µM, respectively. “CCGUGACACGAAGGAUAUGUGGGUGGUAGUCUGUGCUCCGCCUACAUGAGGAUCACCCAUGUAUCACAGAAGGUCGGACGUCAA [Zaaerzaza]”: the entries for the “apparent KD of MS2 coat protein” value in the data set with MS2 coat protein [1] (input ligand: FMN 200 uM) and in the data set with MS2 coat protein [1] (input ligand: none) were 0.0712 µM and 0.0513 µM, respectively. For the sequence “CCUACCAACACAGGAUAUGCUAUCCUUUGGGUAGCAGAAGGGUGAAACAUGAGGAUCACCCAUGUGGUGGGACCCGGUGACGGG [Mat - Same State NG 1 - Eli mod - D70]”, the “apparent KD of MS2 coat protein” value in the data set with MS2 coat protein [1] (input ligand: FMN 200 uM) is 0.116 µM; in the data set on MS2 coat protein [1] (input ligand: none), 1.01 µM. On the same counts, the results for “CUAAUUUAUUGAGGAUAUGCACAGGAUCACCGUGUAGAAGGCAUCAGGGAGAAGGUGCAGAGGAUCACCCUGUAAGGAUAUCAA [pwkr2 ssNG1 DX.3]” are 0.105 µM and 0.231 µM. For the sequence “CUAGCAUACCGAGGAUAUUCAUAUAAUAAAUAAACAUGAGGAUCACCCAUGUGGCGAAAGCCUAGGGAGAAGGCGGAAUGCUAG [salish99_SSNG2_r2_004]”, the figures for the “apparent KD of MS2 coat protein” value in the data set with MS2 coat protein [1] (input ligand: FMN 200 uM) and in the data set on MS2 coat protein [1] (input ligand: none) were 0.0201 µM and 0.212 µM, respectively. On the same counts, the results for “GCACUCAAGUUAGGAUAUGGAUCGGAAAACGAUCCAGAAGGAACAUGGGAACAUGAGGAUCACCCAUGUUCCAGAAACGAGUGC [SameSame 1 - Jieux - Same State NG 1]” are 0.188 µM and 0.733 µM. “GCACUCAAGUUAGGAUAUGGAUCGGAAACCGAUCCAGAAGGAACACAAUAACAUGAGCAUCAGCCGUGUUCCAGAAACGAGUGC [SameSame 15 - Jieux - Same State NG 1]”: the “apparent KD of MS2 coat protein” value in the data set on MS2 coat protein [1] (input ligand: FMN 200 uM) amounted to 0.126 µM. Take “GCAGAAGGUGCGGAGGAUCACCCUGUAAGGAUAUGCAUUAGCAAGGAUAUACAGAGGAUCACCCUGUAGAAGGUGCACUACAAA [pwkr2 ssNG3 DX.5]”: the results for the “apparent KD of MS2 coat protein” value in the data set with MS2 coat protein [1] (input ligand: FMN 200 uM) and with MS2 coat protein [1] (input ligand: none) were 0.525 µM and 1.89 µM, respectively. Consider “GCCACAUGAGGAUCACCCAUGUACGGUUCCGUCUCAUUAGUGCAGGAUAUGUUCACCGGAAGUGUGCAGAAGGGUAAAAGUGGG [Onar]”, for which the “apparent KD of MS2 coat protein” value in the data set with MS2 coat protein [1] (input ligand: FMN 200 uM) stood at 0.209 µM; in the data set on MS2 coat protein [1] (input ligand: none), 0.0882 µM. As to “GCCAUCGCAUGAGGAUAUGGACAGCUUUGCUGUCCAGAAGGCAUGUCAUAAGACAUGAGGAUCACCCAUGUAGUUAAGAUGGCA [Mat - Same State NG 1 - JL Mod - D15]”, the figures for the “apparent KD of MS2 coat protein” value with MS2 coat protein [1] (input ligand: FMN 200 uM) and in the data set on MS2 coat protein [1] (input ligand: none) were 0.0741 µM and 1.07 µM, respectively. On the same counts, the results for “GCCAUCGCAUGAGGAUAUGGCACCGUUUCGGUGCCAGAAGGCAUGUCUCUAGACAUGAGGAUCACCCAUGUAGUUAAGAUGGCA [Pyrimidine booster 2]” are 0.0504 µM and 0.589 µM. On the same counts, the results for “GGACAUCCCACAGGAUAUGCUGGACUUUGUCCAGCAGAAGGGUGACAUGAGGAUCACCCAUGUAAUAGGAUGUCCAUAUUUAAU [Denovo 38]” are 0.0793 µM and 0.536 µM. On the same counts, the results for “GGCGAUCAGGCUAACAUGAGGAUCACCCAUGUGGACUCAUGGUAGGAUAUGCUGUACAAAGUACAGCAGAAGGGCCGGAGAGCC [Mat - Same State NG 3 - JL Mod - D2]” are 0.144 µM and 0.152 µM.

With “GUUGGAUUUCAGAAGGGCUCCAGCAAAGCUGGAGCAGGAUAUGAGGAUCACCCAUAUCAAUCUCCAGAAUUGAUAUGAAUCAAU [#SharedSequence - IExNG1: 9-1] (puzzle (switch architecture): Inverted Exclusion NG 1)”, the “apparent KD of MS2 coat protein” value with MS2 coat protein [2] (input ligand: FMN 200 uM) is 0.317 µM; with MS2 coat protein [2] (input ligand: none), 0.0292 µM.

In the case of “UAAAUAAAUCCUAGAGGAUCACCCUAGGAUAUCACCGUCGAGGUGCCAUAAUGGCACCUCGACGGUGAGAAGGAGGAAAAUAAA [#SharedSequence - SLExNG3: 4] (puzzle (switch architecture): Small Loop Exclusion NG 3)”, the “apparent KD of MS2 coat protein” value stood at 0.00664 µM in the data set with MS2 coat protein [2] (input ligand: FMN 200 uM) and 0.00646 µM in the data set with MS2 coat protein [2] (input ligand: none). For the sequence “UAAUCUCGAGCCGACGGGAGAUUACAUGAGGAUCACCCAUGUGAGGAUAUCCCUGAGAAGACGGCGGAGAAGGCACUGGGUAGG [Diraoran] (puzzle (switch architecture): Exclusion NG 3)”, the “apparent KD of MS2 coat protein” value amounted to 0.0183 µM in the data set with MS2 coat protein [2] (input ligand: FMN 200 uM) and 0.00979 µM in the data set on MS2 coat protein [2] (input ligand: none). For “UAUAAUCUUUAAGGAUAUCAGUGGCUUUGCCACUGAGAAGGUGAGGAUCACCCACCUACGUGACCCUGGUUUCAGGGUCACGAU [#AddUracilToBrourdLoops 10 - Jieux - Exclusion NG1] (puzzle (switch architecture): Exclusion NG 1)”, the “apparent KD of MS2 coat protein” value in the data set on MS2 coat protein [2] (input ligand: FMN 200 uM) is 0.0116 µM; in the data set with MS2 coat protein [2] (input ligand: none) it was 0.01 µM.

In the case of “UAUUAUAUGGAGAAGGACAUGAGGAUCACCCAUGUCGCCGGGCCCGGGAAACCGGGCCCGGCCAUGUAGGAUAUCCAUAUGGUA [#This is a good prank 6] (puzzle (switch architecture): Inverted Exclusion NG 2)”, the “apparent KD of MS2 coat protein” value in the data set on MS2 coat protein [2] (input ligand: FMN 200 uM) is 0.00541 µM; with MS2 coat protein [2] (input ligand: none) it was 0.00478 µM. On the same counts, the results for “UCAGUAGAGUCAGGAUAUACAAAAGGCGAUCCAUACAUGAGGAUCACCCAUGUAGAAGGGACUCUACUGUAAGUCGGAAACGAC [#StaticStemDeletion - Eli x2 4.003] (puzzle (switch architecture): Small Loop Exclusion NG 1)” are 0.0116 µM and 0.165 µM. On the same counts, the results for “UCAUUUAUCACAGGAUAUAUUAGUAUACAGUUGUUUGGUUAUUACAUAUUAAUAGAAGGGUGAAACAUGAGGAUCACCCAUGUA [S-loop S-stateNG1 03] (puzzle (switch architecture): Small Loop Same State NG 1)” are 0.113 µM and 0.367 µM.

With “UCUUAAUUGUAGAAGGGUGACAUGAGGAUCACCCAUGUGCACGCGCGAUUUACGGCGCGCGUGCCACAGGAUAUACAGUUGGGU [Erinquve] (puzzle (switch architecture): Inverted Same State NG 2)”, the “apparent KD of MS2 coat protein” value in the data set on MS2 coat protein [2] (input ligand: FMN 200 uM) is 0.0121 µM; with MS2 coat protein [2] (input ligand: none) it was 0.0411 µM. On the same counts, the results for “UUUAGUUUGUAGAAGGGUGACAUGAGGAUCACCCAUGUGCGUCGCCUGAAAGACCAGGGUACGCCACAGGAUAUACAAAGUAAA [Tiveedbila] (puzzle (switch architecture): Inverted Same State NG 2)” are 0.0768 µM and 0.0396 µM.
